Data as given in patent US10202593B2, “Evolved sortases and uses thereof” (President and Fellows of Harvard College, priority 2013, dated 2019).
Changes are numbered by the printed parent chain. In names and notes the source's numbering stands. Where two headings read alike, the source gives them in different places.

B1: eSrtA(4S-5): 5mut + N98D A104V A118T F122A K134R I182V (protein)
chain: QAKPQIPKDKSKVAGYIEIPDADIKEPVYPGPATREQLDRGVSFVEENESLDDQNISITGHTAIDRPNYQFTNLRAAKKGSMVYFKVGNETRKYKMTSIRNVKPTAVEVLDEQKGKDKQLTLVTCDDYNEETGVWETRKIFVATEVK
B2: eSrtA(2A-3.5) (protein)
chain: B1 chain with D39N, V45A, T59A, A63F, R75K, K103R, V109I, V123F
B3: 2A.6A: 5mut + A104H K138V K162R I182V (protein)
chain: B1 chain with D39N, V45H, T59A, A63F, R75K, K79V, K103R
B4: eSrtA(4S-6): round 6 consensus variant targeting LPESG (protein)
chain: B1 chain with T59S, R75G, E130V
B5: eSrtA(2A-6): round 6 consensus variant targeting LAETG; kinetics close to 2A.6A (protein)
chain: B1 chain with D39N, V45H, T59A, A63F, R75K, K79V, K103R
B6: eSrtA(4S-3.5) (protein)
chain: B1 chain with D39N, V45T, A63F, R75K
B7: eSrtA(4S-3): round 3 LPESG clone: eSrtA + N98S A104T A118T F122S D124G K134R K173E K177E I182V (protein)
chain: B1 chain with D39S, V45T, A63S, D65G, K114E, K118E
B8: eSrtA(4S-4): 5mut + A104V A118T F122S I182V (protein)
chain: B1 chain with D39N, A63S, R75K
B9: 4S.6B: 5mut + N98D A104V A118S F122A K134P I182V E189P (protein)
chain: B1 chain with T59S, R75P, E130P
B10: 4S.6C: 5mut + N98D A104V A118T F122A K134R I182V E189F (protein)
chain: B1 chain with E130F

Tests used:
Format in all cases: biochemical
[1] = test system: LPESG (Abz-LPESGK(Dnp)-CONH2); experiment: In vitro sortase kinetics HPLC assay, LPESG substrate; settings: for KH (KH,LPESG): LPESG substrate; for Specificity / preference for LPESG over LPETG: ratio of kcat/KM; for Specificity: 4S (LPESG) over wt (LPETG); for specificity (relative cat. Efficiency, fold): ratio of kcat/Km between 4S (LPESG) and wt (LPETG) substrates; for kHydrolysis (Hz): 1 mM
Protocol: (§1) See below for details on sortase expression and purification, and on the synthesis of Abz-LPETGK(Dnp)-CONH2 (SEQ ID NO: 19). […] Reactions were initiated with the addition of enzyme and incubated at 22.5° C. for 3 to 20 minutes before quenching with 0.5 volumes of 1 M HCl. Five to ten nmol of peptide from the quenched reactions were injected onto an analytical reverse-phase Eclipse XDB-C18 HPLC column (4.6×150 mm, 5 μm, Agilent Technologies) and chromatographed using a gradient of 10 to 65% acetonitrile with 0.1% TFA in 0.1% aqueous TFA over 13 minutes. Retention times under these conditions for the Abz-LPETGK(Dnp)-CONH2 (SEQ ID NO: 19) substrate, the released GKDnp peptide, and the Abz-LPETGGG-COOH (SEQ ID NO: 20) product were 12.8, 10.4, and 9.1 min, respectively. To calculate the percent conversion, the ratio of the integrated areas of the Abz-LPETGGG-COOH (SEQ ID NO: 20) and Abz-LPETGK(Dnp)-CONH2 (SEQ ID NO: 19) peptide Abs220 peaks was compared to a standard curve generated by mixing the product and starting peptide in known ratios. To determine […] and Km, reaction rates were fit to the Michaelis-Menten equation using OriginPro 7.0 software. All kinetics values reported represent the average of at least three measurements. Percent conversion was also calculated by using the ratio of the integrated areas of the GK(Dnp)-CONH2 and Abz-LPETGK(Dnp)-CONH2 peptide Abs355 peaks were compared directly (Example 5). To determine kcat and Km, LPETG, reaction rates were fit to the Michaelis-Menten equation using Microsoft Excel using the Solver add-in. To determine Km,GGG and KH, reaction rates were fit to the modified Michaelis-Menten, for which KH is as defined when KH<<Km,GGG.
(§2) Assays to determine eSrtA, eSrtA(2A-9) and eSrtA(4S-9) specificity were performed by preparing 10 μM stocks of Abz-LXEXGK(Dnp) (SEQ ID NO: 75) peptides in 300 mM Tris pH 7.5, 150 mM NaCl, 5 mM CaCl2, 5% v/v DMSO, and 100 mM Gly-Gly-Gly-COOH (GGG). Reactions were performed by adding eSrtA(2A-9) to a final concentration of 450 nM, eSrtA(4S-9) to a final concentration of 115 nM or eSrtA to a final concentration of 47.5 nM and a final volume of 100 μL, then incubating at 22.5° C. for 15 minutes. Reactions were quenched by the addition of 0.2 volumes of 5 M HCl, then were injected onto an analytical reverse-phase Eclipse XDB-C18 HPLC column (4.6×150 mm, 5 μm, Agilent Technologies) and chromatographed using a gradient of 10 to 65% acetonitrile with 0.1% TFA in 0.1% aqueous TFA over 13 minutes. Retention times under these conditions for the Abz-LPETGK(Dnp)-CONH2 (SEQ ID NO: 19) substrate, the released GKDnp peptide, and the Abz-LPETGGG-COOH (SEQ ID NO: 20) product were 12.8, 10.4, and 9.1 min, respectively, while the remaining Abz-LXEXGK(Dnp)-CONH2 (SEQ ID NO: 74) substrates varied in retention time between 9 and 13 minutes. To calculate the percent conversion, the ratio of the integrated areas of the GK(Dnp)-CONH2 and Abz-LPETGK(Dnp)-CONH2 (SEQ ID NO: 19) peptide Abs355 peaks were compared directly. Subsequent determination of kcat/Km and KH were performed as described for in vitro SrtA characterization.
(§3) In each case, rate constants were determined by measuring enzyme velocity at eight different substrate concentrations by HPLC assay, then fit using nonlinear regression to the Michaelis-Menten equation, yielding kcat and Km. KH was calculated by measuring enzyme velocity at 1 mM target substrate and eight different GGG concentrations by HPLC assay, then fitting the resulting curves using nonlinear regression to the modified Michaelis-Menten equation.

[2] = test system: LPETG (Abz-LPETGK(Dnp)-CONH2); experiment: In vitro sortase kinetics HPLC assay, LPETG substrate; settings: substrate wt (LPETG)
Protocol: as §1, §2, §3

[3] = test system: LAETG (Abz-LAETGK(Dnp)-CONH2); experiment: In vitro sortase kinetics HPLC assay, LAETG substrate; settings: for Specificity (relative catalytic efficiency, fold): ratio of kcat/KM between 2A (LAETG) and wt (LPETG)
Protocol: as §1, §2, §3

[4] = 1 mM 4S (LPESG) substrate, GGG varied
[5] = 1 mM 4S (LPESG) substrate, read-out: Km, GGG
[6] = Example 5 variants, substrate 4S (LPESG)
[7] = Example 5 variants, substrate 4S (LPESG), read-out: Avg KM
[8] = substrate 4S (LPESG), GGG varied
[9] = substrate 4S (LPESG), read-out: Km, LxExG
[10] = Example 5 variants, read-out: Avg KM
[11] = Example 5 variants, substrate 2A (LAETG)
[12] = Example 5 variants, substrate 2A (LAETG), read-out: Avg KM
[13] = substrate 2A (LAETG), read-out: Km, LxExG
[14] = GGG varied, substrate 4S (LPESG)
[15] = GGG varied, substrate 2A (LAETG)

Molecule | Khydrolysis ([1]; 1 mM 4S (LPESG) substrate) | kcat, 1 mM LxExG (Hz) [1, 4] | Km [1, 5] | Avg kcat (Hz) [1, 6] | Km [1, 7] | Specificity [1] | specificity (relative cat. Efficiency, fold) [1] | kL/KL/KH ([1]; substrate 4S (LPESG)) | kHydrolysis (Hz) [1, 8] | kcat, 10 mM GGG (Hz) ([1]; substrate 4S (LPESG)) | Km [1, 9] | Avg kcat (Hz) ([2]; Example 5 variants) | Km [2, 10] | kcat, 10 mM GGG (Hz) [2] | Km ([2]; read-out: Km, LxExG) | also measured
B1 | 190.8 µM | 1.342 Hz | 26700 µM | 0.3877 Hz | 76 µM | 9.672 | 9.999 fold | 2.69E+07 | 0.009551 Hz | 0.3877 Hz | 76 µM | 0.00606 Hz | 11.7 µM | 0.006149 Hz | 12.2 µM | increase in kcat/Km for LPESG as compared to LPETG ([1]; FIG. 2): ~2 fold; increased affinity (KM) for the LPESG substrate as compared to the LPETG substrate ([1]; FIG. 2): ~8 fold; KH (KH,LPESG) [1]: 190 ± 16 µM
B2 |  |  |  |  |  |  |  |  |  |  |  | 1.525 Hz | 3750 µM | 1.587 Hz | 4110 µM | Avg kcat (Hz) [3, 11]: 1.14 Hz; Km [3, 12]: 6370 µM; lower activity than that of eSrtA on its native LPETG substrate ([3]; minimal mutant, LPETG and LAETG processed): ~100 fold; Specificity (relative catalytic efficiency, fold) [3]: 2.252 fold; kcat, 10 mM GGG (Hz) ([3]; substrate 2A (LAETG)): 1.249 Hz; Km [3, 13]: 7160 µM
B3 |  |  |  |  |  |  |  |  |  |  |  |  |  | 0.1572 Hz | 3290 µM | Khydrolysis ([3]; 1 mM 2A (LAETG) substrate): 135.8 µM; kcat, 1 mM LxExG (Hz) ([3]; 1 mM 2A (LAETG) substrate, GGG varied): 1.714 Hz; Km ([3]; 1 mM 2A (LAETG) substrate, read-out: Km, GGG): 1040 µM; specificity (relative cat. Efficiency, fold) ([3]; ratio of kcat/Km between 2A (LAETG) and wt (LPETG) substrates, favoured over disfavoured): 86.36 fold; kL/KL/KH ([3]; substrate 2A (LAETG)): 3.04E+07; kHydrolysis (Hz) ([3]; substrate 2A (LAETG), 1 mM, GGG varied): 0.2252 Hz; kcat, 10 mM GGG (Hz) ([3]; substrate 2A (LAETG)): 2.47 Hz; Km [3, 13]: 608 µM
B4 |  |  |  | 0.9425 Hz | 125 µM | 8.094 |  |  |  |  |  | 0.9657 Hz | 1040 µM |  |  | Avg kHydro (Hz) [1, 14]: 0.01782 Hz; Avg kcat (Hz) [1, 14]: 2.004 Hz; Km ([1]; KM for GGG, substrate 4S (LPESG), read-out: Avg KM): 13100 µM; KH (KH,LPESG) [1]: 116 ± 10 µM; Avg KH ([1]; substrate 4S (LPESG)): 116.3542 µM
B5 |  |  |  |  |  |  |  |  |  |  |  | 0.1622 Hz | 3400 µM |  |  | Avg kcat (Hz) [3, 11]: 2.579 Hz; Km [3, 12]: 665 µM; KH ([3]; GGG concentration at which hydrolysis and transpeptidation rates are equal, 2A (LAETG) variant): 149 ± 63 µM; Avg kHydro (Hz) [3, 15]: 0.2347 Hz; Avg kcat (Hz) [3, 15]: 1.734 Hz; Km ([3]; KM for GGG, substrate 2A (LAETG), read-out: Avg KM): 1110 µM; Specificity (relative catalytic efficiency, fold) [3]: 82.4 fold; Avg KH ([3]; substrate 2A (LAETG)): 148.9406 µM
B6 |  |  |  | 5.779 Hz | 38800 µM | 1.454 |  |  |  | 1.118 Hz | 7310 µM | 5.482 Hz | 39300 µM |  |  | lower activity than that of eSrtA on its native LPETG substrate ([1]; minimal mutant, LPETG and LPESG processed): ~100 fold
B7 |  |  |  | 2.543 Hz | 3330 µM | 244.976 |  |  |  |  |  | 0.007565 Hz | 3390 µM |  |  | preference for LPESG over LPETG [1]: 245 fold; reduced catalytic efficiency ([1]; round 3 clone, LPESG target): > 10 fold
B8 |  |  |  | 0.7574 Hz | 1560 µM | 2.224 | 1.823 fold |  |  | 0.7269 Hz | 1410 µM | 0.1073 Hz | 491 µM | 0.09571 Hz | 339 µM | preference for LPESG over LPETG [1]: 2 fold
B9 | 122.3 µM | 2.132 Hz | 15700 µM |  |  |  | 0.9102 fold | 3.38E+07 | 0.0167 Hz | 1.242 Hz | 312 µM |  |  | 1.081 Hz | 238 µM | increased affinity (KM) for the LPESG substrate as compared to the LPETG substrate ([1]; FIG. 2): ~2 fold
B10 | 334.1 µM | 1.502 Hz | 36000 µM |  |  |  | 18.52 fold | 1.30E+07 | 0.01399 Hz | 0.6657 Hz | 156 µM |  |  | 0.003663 Hz | 16.1 µM | 
